Source: patent US20230241168A1 (ALPINE IMMUNE SCIENCES, published 2023)
Read-outs that look alike come from different tables or passages of the source. No end group written: not given here.

T1: human CD80 (human, UniProt P33681 35-288)
T1 sequence (looked up): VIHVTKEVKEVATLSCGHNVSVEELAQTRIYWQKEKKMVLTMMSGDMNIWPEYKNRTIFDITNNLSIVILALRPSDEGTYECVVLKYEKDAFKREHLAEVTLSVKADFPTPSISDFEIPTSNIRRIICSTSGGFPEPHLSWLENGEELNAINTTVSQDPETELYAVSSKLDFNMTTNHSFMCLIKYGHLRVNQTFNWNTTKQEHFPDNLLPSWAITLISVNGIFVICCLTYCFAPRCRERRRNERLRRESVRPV

T2: human CD86 (human, UniProt P42081 24-329)
T2 sequence (looked up): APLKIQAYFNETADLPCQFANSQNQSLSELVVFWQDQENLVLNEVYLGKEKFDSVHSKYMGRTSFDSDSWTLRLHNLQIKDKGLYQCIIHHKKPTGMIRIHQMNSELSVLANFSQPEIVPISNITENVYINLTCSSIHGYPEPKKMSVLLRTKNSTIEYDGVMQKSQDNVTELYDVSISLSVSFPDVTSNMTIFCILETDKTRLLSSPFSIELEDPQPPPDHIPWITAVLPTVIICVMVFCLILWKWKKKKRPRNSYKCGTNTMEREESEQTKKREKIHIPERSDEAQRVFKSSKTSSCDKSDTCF

T3: human ICOSL (human, UniProt O75144 19-302)
T3 construct: whole, on cells
T3 sequence (looked up): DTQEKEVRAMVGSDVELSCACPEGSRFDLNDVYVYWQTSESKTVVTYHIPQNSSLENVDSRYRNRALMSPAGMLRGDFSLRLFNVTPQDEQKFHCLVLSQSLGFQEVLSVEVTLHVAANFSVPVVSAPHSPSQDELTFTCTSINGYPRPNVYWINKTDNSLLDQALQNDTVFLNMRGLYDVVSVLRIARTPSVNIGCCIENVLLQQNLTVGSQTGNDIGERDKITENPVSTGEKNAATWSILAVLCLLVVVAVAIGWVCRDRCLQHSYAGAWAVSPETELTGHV

T4: recombinant human APRIL (human, UniProt O75888 105-250, limits assumed)
T4 construct: also called human APRIL (Tonbo Biosciences)
T4 sequence (looked up): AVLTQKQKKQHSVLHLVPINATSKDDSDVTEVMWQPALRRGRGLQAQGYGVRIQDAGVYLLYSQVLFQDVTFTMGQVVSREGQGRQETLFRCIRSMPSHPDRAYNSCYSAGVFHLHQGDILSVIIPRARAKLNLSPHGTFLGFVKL


What was measured:
[1] = target: recombinant human APRIL (human) (UniProt O75888); test: cell-based or functional assay; parameters: IC50 APRIL (Δ Parental vTD) / IC50 BAFF (Δ Parental vTD): unit not given beside the values
[2] = target: recombinant human BAFF (human) (UniProt Q9Y275); test: cell-based or functional assay; parameters: IC50 APRIL (Δ Parental vTD) / IC50 BAFF (Δ Parental vTD): unit not given beside the values
[3] = target: recombinant human APRIL (human) (UniProt O75888); test: cell-based or functional assay; parameters: IC50 APRIL (Δ TACI 30-110-Fc) / IC50 BAFF (Δ TACI 30-110-Fc): unit not given beside the values
[4] = target: recombinant human BAFF (human) (UniProt Q9Y275); test: cell-based or functional assay; parameters: IC50 APRIL (Δ TACI 30-110-Fc) / IC50 BAFF (Δ TACI 30-110-Fc): unit not given beside the values
human CD80 = target: T1, human CD80; test: cell-based or functional assay
human CD86 = target: T2, human CD86; test: cell-based or functional assay
human ICOSL = target: T3, human ICOSL; test: flow cytometry, cells expressing human ICOSL
recombinant human APRIL = target: T4, recombinant human APRIL; test: told in the description with reference to Example 8 (Jurkat/NF-κB/TACI reporter blockade)
recombinant human BAFF = target: T5, recombinant human BAFF (human, UniProt Q9Y275 134-285); test: as above
T5 construct: also called human BAFF (BioLegend)

BCMA WT-Fc (Fc fusion), sequence (chain): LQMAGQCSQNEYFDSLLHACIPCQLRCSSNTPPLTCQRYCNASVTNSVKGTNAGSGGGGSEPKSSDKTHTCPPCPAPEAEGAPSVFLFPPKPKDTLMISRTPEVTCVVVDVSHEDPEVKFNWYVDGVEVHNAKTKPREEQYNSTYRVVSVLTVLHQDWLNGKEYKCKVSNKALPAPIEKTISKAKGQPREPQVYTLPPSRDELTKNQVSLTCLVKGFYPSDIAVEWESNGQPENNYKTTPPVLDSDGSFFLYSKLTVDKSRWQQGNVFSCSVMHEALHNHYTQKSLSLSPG

| Molecule | IC50 (nM) APRIL [1] [nM] | IC50 APRIL (Δ Parental vTD) [1] | IC50 (nM) BAFF [2] [nM] | IC50 BAFF (Δ Parental vTD) [2] | MFI (human ICOSL) [MFI] | other results |
| --- | --- | --- | --- | --- | --- | --- |
| BCMA WT-Fc (Fc fusion) | 1.03 | 1 | 0.995 | 1 | – | IC50 (nM) APRIL [3]: 183 nM; IC50 APRIL (Δ TACI 30-110-Fc) [3]: 0.05; IC50 (nM) BAFF [4]: 823 nM; IC50 BAFF (Δ TACI 30-110-Fc) [4]: 0.14 |
| TACI WT Fc (Fc fusion, not shown: a dimerising Fc or GST) VAMRSCPEEQYWDPLLGTCMSCKTICNHQSQRTCAAFCRSLSCRKEQGKFYDHLLRDCISCASICGQHPKQCAYFCENKLRS | 9.17 | 1 | 2.58 | 1 | – | – |
| variant CTLA-4 ECD-Fc G29W/L98Q/Y105L (Fc fusion) KAMHVAQPAVVLASSRGIASFVCEYASPWKATEVRVTVLRQADSQVTEVCAATYMMGNELTFLDDSICTGTSSGNQVNLTIQGLRAMDTGLYICKVEQMYPPPYLLGIGNGTQIYVIDPEPCPDSDGSGGGGSEPKSSDKTHTCPPCPAPEAEGAPSVFLFPPKPKDTLMISRTPEVTCVVVDVSHEDPEVKFNWYVDGVEVHNAKTKPREEQYNSTYRVVSVLTVLHQDWLNGKEYKCKVSNKALPAPIEKTISKAKGQPREPQVYTLPPSRDELTKNQVSLTCLVKGFYPSDIAVEWESNGQPENNYKTTPPVLDSDGSFFLYSKLTVDKSRWQQGNVFSCSVMHEALHNHYTQKSLSLSPG | – | – | – | – | 570 | CD80 IC50 (human CD80): 33.6 nM; CD80 IC50 (Δ Parental CTLA-4) (human CD80): 1 ratio; CD86 IC50 (human CD86): 8.2 nM; CD86 IC50 (Δ Parental CTLA-4) (human CD86): 1 ratio |
| variant CTLA-4 ECD-Fc M56T/L98Q/Y105L (Fc fusion) KAMHVAQPAVVLASSRGIASFVCEYASPGKATEVRVTVLRQADSQVTEVCAATYMTGNELTFLDDSICTGTSSGNQVNLTIQGLRAMDTGLYICKVEQMYPPPYLLGIGNGTQIYVIDPEPCPDSDGSGGGGSEPKSSDKTHTCPPCPAPEAEGAPSVFLFPPKPKDTLMISRTPEVTCVVVDVSHEDPEVKFNWYVDGVEVHNAKTKPREEQYNSTYRVVSVLTVLHQDWLNGKEYKCKVSNKALPAPIEKTISKAKGQPREPQVYTLPPSRDELTKNQVSLTCLVKGFYPSDIAVEWESNGQPENNYKTTPPVLDSDGSFFLYSKLTVDKSRWQQGNVFSCSVMHEALHNHYTQKSLSLSPG | – | – | – | – | 700 | – |
| SLSCRKEQGKFYDHLLRDCISCASICGQHPKQCAYFCENKLRS (Fc fusion, not shown: a dimerising Fc or GST, cysteine pairing not given here; also: Fc fusion, linker and Fc not given here, Fc fusion; also called WT TACI-Fc containing only the CRD2 domain of TACI; TACI 68-110 Fc) [528 TACI CRD2-Fc] | – | – | – | – | – | binding result (recombinant human APRIL): binds; binding result (recombinant human BAFF): binds |
